PMC2956063
Where no end group is shown, it is not given here.

What was measured:
[1] = target: normal recombinant fibrinogen (UniProt P02671); assay: plasmin protection assay
[2] = target: recombinant γN308K fibrinogen (UniProt P02671); assay: plasmin protection assay

B1: GPRP-amide (peptide)
peptide: GPRP-NH2
- GPRP concentration of full protection [1]: 5 mM
- GPRP concentration at which fragment D1 was readily evident [2]: 0.5 mM
- GPRP concentration of full protection [2]: > 20 mM
- fold weaker than normal fibrinogen [2]: 10 fold
